In IntAct's records for PubMed 12403843:

B1: Vitamin D3 receptor (Homo sapiens), P11473 (parent)
chain: MEAMAASTSLPDPGDFDRNVPRICGVCGDRATGFHFNAMTCEGCKGFFRRSMKRKALFTCPFNGDCRITKDNRRHCQACRLKRCVDIGMMKEFILTDEEVQRKREMILKRKEEEALKDSLRPKLSEEQQRIIAILLDAHHKTYDPTYSDFCQFRPPVRVNDGGGSHPSRPNSRHTPSFSGDSSSSCSDHCITSSDMMDSSSFSNLDLSEEDSDDPSVTLELSQLSMLPHLADLVSYSIQKVIGFAKMIPGFRDLTSEDQIVLLKSSAIEVIMLRSNESFTMDDMSWTCGNQDYKYRVSDVTKAGHSLELIEPLIKFQVGLKKLNLHEEEHVLLMAICIVSPDRPGVQDAALIEAIQDRLSNTLQTYIRCRHPPPGSHLLYAKMIQKLADLRSLNEEHSKQYRCLSFQPECSMKLTPLVLEVFGNEIS

Variants of: B1
Settings: with ncoa1_human NCOA1, Q15788
Chain of ncoa1_human NCOA1, Q15788 (Q15788 whole entry): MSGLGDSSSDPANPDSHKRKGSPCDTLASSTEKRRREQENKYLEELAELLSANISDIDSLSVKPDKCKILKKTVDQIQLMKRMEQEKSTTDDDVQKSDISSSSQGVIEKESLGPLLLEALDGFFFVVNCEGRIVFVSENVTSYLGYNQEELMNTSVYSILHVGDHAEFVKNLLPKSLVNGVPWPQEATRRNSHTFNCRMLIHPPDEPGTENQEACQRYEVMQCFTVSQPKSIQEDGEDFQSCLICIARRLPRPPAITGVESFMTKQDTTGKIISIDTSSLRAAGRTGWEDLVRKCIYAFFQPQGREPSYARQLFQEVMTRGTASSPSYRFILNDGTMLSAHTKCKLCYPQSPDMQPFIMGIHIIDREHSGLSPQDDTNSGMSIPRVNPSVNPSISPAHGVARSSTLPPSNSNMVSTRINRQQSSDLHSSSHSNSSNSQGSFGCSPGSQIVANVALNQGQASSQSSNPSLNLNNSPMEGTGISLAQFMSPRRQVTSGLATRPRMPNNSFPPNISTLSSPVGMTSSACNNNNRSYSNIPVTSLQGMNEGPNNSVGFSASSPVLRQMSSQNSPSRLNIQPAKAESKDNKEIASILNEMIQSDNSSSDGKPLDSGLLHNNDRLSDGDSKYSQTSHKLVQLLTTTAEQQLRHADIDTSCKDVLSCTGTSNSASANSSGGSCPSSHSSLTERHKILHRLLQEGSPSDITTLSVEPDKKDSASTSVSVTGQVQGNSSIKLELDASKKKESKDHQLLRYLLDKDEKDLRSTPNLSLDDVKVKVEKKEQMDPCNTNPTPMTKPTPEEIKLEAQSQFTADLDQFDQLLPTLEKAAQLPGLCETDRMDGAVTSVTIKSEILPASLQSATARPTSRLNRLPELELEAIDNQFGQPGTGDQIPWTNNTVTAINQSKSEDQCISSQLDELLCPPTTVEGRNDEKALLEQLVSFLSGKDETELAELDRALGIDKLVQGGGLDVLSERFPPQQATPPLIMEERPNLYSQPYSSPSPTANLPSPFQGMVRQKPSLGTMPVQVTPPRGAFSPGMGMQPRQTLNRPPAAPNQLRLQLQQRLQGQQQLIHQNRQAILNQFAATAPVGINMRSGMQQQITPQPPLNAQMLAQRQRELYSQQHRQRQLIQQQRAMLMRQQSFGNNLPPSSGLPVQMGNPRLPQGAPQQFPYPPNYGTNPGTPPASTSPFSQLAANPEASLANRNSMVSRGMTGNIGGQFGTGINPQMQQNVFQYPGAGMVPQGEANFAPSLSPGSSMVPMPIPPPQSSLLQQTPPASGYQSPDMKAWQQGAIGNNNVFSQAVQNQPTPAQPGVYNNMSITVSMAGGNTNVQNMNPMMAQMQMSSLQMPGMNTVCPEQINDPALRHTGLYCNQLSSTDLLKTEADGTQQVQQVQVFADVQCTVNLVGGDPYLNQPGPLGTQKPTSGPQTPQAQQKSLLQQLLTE

Variant	effect of a mutation on the interaction
MEAMAASTSLPDPGDFDRNVPRICGVCGDRATGFHFNAMTCEGCKGFFRRSMKRKALFTCPFNGDCRITKDNRRHCQACRLKRCVDIGMMKEFILTDEEVQRKREMILKRKEEEALKDSLRPKLSEEQQRIIAILLDAHHKTYDPTYSDFCQFRPPVRVNDGGGSHPSRPNSRHTPSFSGDSSSSCSDHCITSSDMMDSSSFSNLDLSEEDSDDPSVTLELSQLSMLPHLADLVSYSIQKVIGFAKMIPGFRDLTSEDQIVLLKSSAIEVIMLRSNESFTMDDMSWTCGNQDYKYRVSDVTKAGHSLELIEPLIKFQVGLKKLNLHEEEHVLLMAICIVSPDRPGVQDAALIEAIQDRLSNTLQTYIRCRHPPPGSHLLYAKMIQKLADLRSLNEEHSKQYRCLSFQPECSMKLTPLVLKVFGNEIS [E420K]	disrupting interaction strength

Variants of: B1
Settings: with med1_human MED1, Q15648
Chain of med1_human MED1, Q15648 (Q15648 whole entry): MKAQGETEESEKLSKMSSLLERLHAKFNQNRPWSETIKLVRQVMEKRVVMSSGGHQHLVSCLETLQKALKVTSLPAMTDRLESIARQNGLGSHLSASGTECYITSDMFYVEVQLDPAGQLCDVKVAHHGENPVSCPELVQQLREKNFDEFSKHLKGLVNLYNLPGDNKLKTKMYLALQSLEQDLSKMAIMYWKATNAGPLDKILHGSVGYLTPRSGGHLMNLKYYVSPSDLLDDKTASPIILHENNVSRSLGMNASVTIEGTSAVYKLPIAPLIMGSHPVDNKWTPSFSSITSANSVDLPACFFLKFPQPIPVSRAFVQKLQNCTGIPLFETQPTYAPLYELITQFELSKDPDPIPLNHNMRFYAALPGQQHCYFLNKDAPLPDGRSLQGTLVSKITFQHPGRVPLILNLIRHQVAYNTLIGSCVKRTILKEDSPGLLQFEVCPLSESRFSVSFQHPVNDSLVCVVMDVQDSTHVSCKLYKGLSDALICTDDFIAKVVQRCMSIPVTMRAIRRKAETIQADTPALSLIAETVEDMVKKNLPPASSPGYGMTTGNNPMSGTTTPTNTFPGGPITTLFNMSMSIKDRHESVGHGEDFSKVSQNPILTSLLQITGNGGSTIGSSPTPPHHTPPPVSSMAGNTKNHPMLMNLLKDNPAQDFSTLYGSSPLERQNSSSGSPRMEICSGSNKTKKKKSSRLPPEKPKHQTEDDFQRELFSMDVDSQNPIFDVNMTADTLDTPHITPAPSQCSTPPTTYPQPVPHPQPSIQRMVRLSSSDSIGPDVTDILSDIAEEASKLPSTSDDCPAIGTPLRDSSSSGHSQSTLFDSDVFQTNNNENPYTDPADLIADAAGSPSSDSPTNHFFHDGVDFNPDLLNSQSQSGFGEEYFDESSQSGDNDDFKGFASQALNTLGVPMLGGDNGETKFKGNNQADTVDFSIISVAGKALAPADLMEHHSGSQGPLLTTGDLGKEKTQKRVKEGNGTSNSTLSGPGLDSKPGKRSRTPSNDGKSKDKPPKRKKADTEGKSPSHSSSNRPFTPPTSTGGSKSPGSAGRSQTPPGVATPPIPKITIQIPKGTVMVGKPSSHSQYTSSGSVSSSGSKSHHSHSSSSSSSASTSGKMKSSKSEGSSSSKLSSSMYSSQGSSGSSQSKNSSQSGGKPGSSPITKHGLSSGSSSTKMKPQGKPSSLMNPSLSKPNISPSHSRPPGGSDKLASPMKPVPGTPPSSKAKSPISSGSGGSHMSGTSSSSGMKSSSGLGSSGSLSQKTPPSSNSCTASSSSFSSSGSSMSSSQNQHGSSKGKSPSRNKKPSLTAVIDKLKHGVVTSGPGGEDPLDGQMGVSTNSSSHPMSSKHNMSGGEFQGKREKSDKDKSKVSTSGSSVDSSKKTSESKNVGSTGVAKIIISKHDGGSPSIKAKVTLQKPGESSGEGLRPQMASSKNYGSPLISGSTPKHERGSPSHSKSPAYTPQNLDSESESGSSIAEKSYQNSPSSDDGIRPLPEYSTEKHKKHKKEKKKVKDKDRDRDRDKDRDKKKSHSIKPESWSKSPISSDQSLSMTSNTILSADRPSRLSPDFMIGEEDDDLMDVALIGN

Variant	effect of a mutation on the interaction
MEAMAASTSLPDPGDFDRNVPRICGVCGDRATGFHFNAMTCEGCKGFFRRSMKRKALFTCPFNGDCRITKDNRRHCQACRLKRCVDIGMMKEFILTDEEVQRKREMILKRKEEEALKDSLRPKLSEEQQRIIAILLDAHHKTYDPTYSDFCQFRPPVRVNDGGGSHPSRPNSRHTPSFSGDSSSSCSDHCITSSDMMDSSSFSNLDLSEEDSDDPSVTLELSQLSMLPHLADLVSYSIQKVIGFAKMIPGFRDLTSEDQIVLLKSSAIEVIMLRSNESFTMDDMSWTCGNQDYKYRVSDVTKAGHSLELIEPLIKFQVGLKKLNLHEEEHVLLMAICIVSPDRPGVQDAALIEAIQDRLSNTLQTYIRCRHPPPGSHLLYAKMIQKLADLRSLNEEHSKQYRCLSFQPECSMKLTPLVLKVFGNEIS [E420K]	disrupting interaction strength
